According to US20130281671:

Biological target: rFVIIIBDD-Fc-Fc (B-domain deleted Factor VIII-Fc fused to a second Fc through a (GGGGS)4 linker; expressed from pSYN-FVIII-041)
Sequence (chain, as listed by the source, stated change not applied): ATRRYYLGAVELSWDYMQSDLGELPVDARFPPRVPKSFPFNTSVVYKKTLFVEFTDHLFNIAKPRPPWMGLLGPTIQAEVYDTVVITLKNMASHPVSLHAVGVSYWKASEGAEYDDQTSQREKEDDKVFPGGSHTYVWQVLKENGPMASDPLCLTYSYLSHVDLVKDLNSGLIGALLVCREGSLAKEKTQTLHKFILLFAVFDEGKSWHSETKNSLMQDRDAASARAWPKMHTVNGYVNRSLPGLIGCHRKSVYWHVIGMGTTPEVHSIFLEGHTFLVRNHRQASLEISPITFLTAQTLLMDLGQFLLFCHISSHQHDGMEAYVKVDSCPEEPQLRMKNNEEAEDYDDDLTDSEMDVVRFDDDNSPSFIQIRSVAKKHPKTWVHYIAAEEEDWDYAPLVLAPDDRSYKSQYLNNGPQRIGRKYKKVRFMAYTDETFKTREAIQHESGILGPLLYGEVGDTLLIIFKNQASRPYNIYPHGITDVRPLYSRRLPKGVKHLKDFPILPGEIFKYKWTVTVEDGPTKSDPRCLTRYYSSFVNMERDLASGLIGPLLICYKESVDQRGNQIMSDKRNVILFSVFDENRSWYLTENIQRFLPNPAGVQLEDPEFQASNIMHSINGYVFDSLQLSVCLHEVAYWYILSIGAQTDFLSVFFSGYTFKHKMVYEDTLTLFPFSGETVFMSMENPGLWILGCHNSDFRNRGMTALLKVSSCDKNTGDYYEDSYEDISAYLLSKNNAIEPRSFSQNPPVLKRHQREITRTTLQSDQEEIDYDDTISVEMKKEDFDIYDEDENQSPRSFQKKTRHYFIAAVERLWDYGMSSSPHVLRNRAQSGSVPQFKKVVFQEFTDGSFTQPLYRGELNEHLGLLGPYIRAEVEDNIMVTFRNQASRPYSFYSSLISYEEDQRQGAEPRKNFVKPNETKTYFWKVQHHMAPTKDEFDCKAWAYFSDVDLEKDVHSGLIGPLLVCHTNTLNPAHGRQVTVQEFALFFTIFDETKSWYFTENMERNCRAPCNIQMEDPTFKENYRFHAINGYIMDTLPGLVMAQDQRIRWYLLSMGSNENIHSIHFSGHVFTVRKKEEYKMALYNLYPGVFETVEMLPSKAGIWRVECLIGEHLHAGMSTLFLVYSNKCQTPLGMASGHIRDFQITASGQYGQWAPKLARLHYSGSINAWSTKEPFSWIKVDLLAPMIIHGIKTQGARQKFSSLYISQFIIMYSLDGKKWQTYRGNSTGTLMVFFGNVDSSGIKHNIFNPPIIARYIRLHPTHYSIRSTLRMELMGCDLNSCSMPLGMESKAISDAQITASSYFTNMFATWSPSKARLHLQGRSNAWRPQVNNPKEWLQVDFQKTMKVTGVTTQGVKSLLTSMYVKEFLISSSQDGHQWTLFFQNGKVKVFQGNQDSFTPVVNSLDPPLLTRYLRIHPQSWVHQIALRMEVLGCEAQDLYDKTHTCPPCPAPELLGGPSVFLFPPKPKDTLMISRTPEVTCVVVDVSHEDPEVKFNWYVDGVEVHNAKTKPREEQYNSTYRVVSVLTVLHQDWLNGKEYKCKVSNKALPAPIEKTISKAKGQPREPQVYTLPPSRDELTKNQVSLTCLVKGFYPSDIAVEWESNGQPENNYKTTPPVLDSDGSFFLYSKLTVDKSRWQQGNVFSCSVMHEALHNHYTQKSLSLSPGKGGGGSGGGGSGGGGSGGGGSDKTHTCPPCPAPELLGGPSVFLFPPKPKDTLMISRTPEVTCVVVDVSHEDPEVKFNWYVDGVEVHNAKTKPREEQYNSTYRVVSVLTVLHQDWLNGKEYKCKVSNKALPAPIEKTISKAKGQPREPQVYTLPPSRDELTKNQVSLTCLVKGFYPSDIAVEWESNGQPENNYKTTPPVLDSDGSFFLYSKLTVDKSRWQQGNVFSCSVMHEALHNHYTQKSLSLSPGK

Row | Protein | nonprocessed FVIIIFc on SDS-PAGE (SYPRO Ruby and Coomassie staining)
1 | soluble form of human PC7 (amino acids 1-663) (protein) LAGTGGPDGQGTGGPSWAVHLESLEGDGEEETLEQQADALAQAAGLVNAGRIGELQGHYLFVQPAGHRPALEVEAIRQQVEAVLAGHEAVRWHSEQRLLRRAKRSVHFNDPKYPQQWHLNNRRSPGRDINVTGVWERNVTGRGVTVVVVDDGVEHTIQDIAPNYSPEGSYDLNSNDPDPMPHPDVENGNHHGTRCAGEIAAVPNNSFCAVGVAYGSRIAGIRVLDGPLTDSMEAVAFNKHYQINDIYSCSWGPDDDGKTVDGPHQLGKAALQHGVIAGRQGFGSIFVVASGNGGQHNDNCNYDGYANSIYTVTIGAVDEEGRMPFYAEECASMLAVTFSGGDKMLRSIVTTDWDLQKGTGCTEGHTGTSAAAPLAAGMIALMLQVRPCLTWRDVQHIIVFTATRYEDRRAEWVTNEAGFSHSHQHGFGLLNAWRLVNAAKIWTSVPYLASYVSPVLKENKAIPQSPRSLEVLWNVSRMDLEMSGLKTLEHVAVTVSITHPRRGSLELKLFCPSGMMSLIGAPRSMDSDPNGFNDWTFSTVRCWGERARGTYRLVIRDVGDESFQVGILRQWQLTLYGSVWSAVDIRDRQRLLESAMSGKYLHDDFALPCPPGLKIPEEDGYTITPN | Kex2, PC7, PACE, and PC5 decrease nonprocessed Factor VIII
2 | soluble form of yeast Kex2 (amino acids 1-675) (protein) LVSSQQIPLKDHTSRQYFAVESNETLSRLEEMHPNWKYEHDVRGLPNHYVFSKELLKLGKRSSLEELQGDNNDHILSVHDLFPRNDLFKRLPVPAPPMDSSLLPVKEAEDKLSINDPLFERQWHLVNPSFPGSDINVLDLWYNNITGAGVVAAIVDDGLDYENEDLKDNFCAEGSWDFNDNTNLPKPRLSDDYHGTRCAGEIAAKKGNNFCGVGVGYNAKISGIRILSGDITTEDEAASLIYGLDVNDIYSCSWGPADDGRHLQGPSDLVKKALVKGVTEGRDSKGAIYVFASGNGGTRGDNCNYDGYTNSIYSITIGAIDHKDLHPPYSEGCSAVMAVTYSSGSGEYIHSSDINGRCSNSHGGTSAAAPLAAGVYTLLLEANPNLTWRDVQYLSILSAVGLEKNADGDWRDSAMGKKYSHRYGFGKIDAHKLIEMSKTWENVNAQTWFYLPTLYVSQSTNSTEETLESVITISEKSLQDANFKRIEHVTVTVDIDTEIRGTTTVDLISPAGIISNLGVVRPRDVSSEGFKDWTFMSVAHWGENGVGDWKIKVKTTENGHRIDFHSWRLKLFGESIDSSKTETFVFGNDKEEVEPAATESTVSQYSASSTSISISATSTSSISIGVETSAIPQTTTASTDPDSDPNTPKKLSSPRQ | Kex2, PC7, PACE, and PC5 decrease nonprocessed Factor VIII
3 | human PC5 (proprotein convertase subtilisin/kexin type 5), expressed from pSYN-PC5-003 (protein) RVYTNHWAVKIAGGFPEANRIASKYGFINIGQIGALKDYYHFYHSRTIKRSVISSRGTHSFISMEPKVEWIQQQVVKKRTKRDYDFSRAQSTYFNDPKWPSMWYMHCSDNTHPCQSDMNIEGAWKRGYTGKNIVVTILDDGIERTHPDLMQNYDALASCDVNGNDLDPMPRYDASNENKHGTRCAGEVAAAANNSHCTVGIAFNAKIGGVRMLDGDVTDMVEAKSVSFNPQHVHIYSASWGPDDDGKTVDGPAPLTRQAFENGVRMGRRGLGSVFVWASGNGGRSKDHCSCDGYTNSIYTISISSTAESGKKPWYLEECSSTLATTYSSGESYDKKIITTDLRQRCTDNHTGTSASAPMAAGIIALALEANPFLTWRDVQHVIVRTSRAGHLNANDWKTNAAGFKVSHLYGFGLMDAEAMVMEAEKWTTVPRQHVCVESTDRQIKTIRPNSAVRSIYKASGCSDNPNRHVNYLEHVVVRITITHPRRGDLAIYLTSPSGTRSQLLANRLFDHSMEGFKNWEFMTIHCWGERAAGDWVLEVYDTPSQLRNFKTPGKLKEWSLVLYGTSVQPYSPTNEFPKVERFRYSRVEDPTDDYGTEDYAGPCDPECSEVGCDGPGPDHCNDCLHYYYKLKNNTRICVSSCPPGHYHADKKRCRKCAPNCESCFGSHGDQCMSCKYGYFLNEETNSCVTHCPDGSYQDTKKNLCRKCSENCKTCTEFHNCTECRDGLSLQGSRCSVSCEDGRYFNGQDCQPCHRFCATCAGAGADGCINCTEGYFMEDGRCVQSCSISYYFDHSSENGYKSCKKCDISCLTCNGPGFKNCTSCPSGYLLDLGMCQMGAICKDATEESWAEGGFCMLVKKNNLCQRKVLQQLCCKTCTFQG | Kex2, PC7, PACE, and PC5 decrease nonprocessed Factor VIII
